Results on 1 molecule are retold here after publication PMC6220978, “Induced conformational changes activate the peptidoglycan synthase PBP1B” (Molecular Microbiology, 2018).

Numbering of substitutions follows the chain as printed.

Common to all, as to experiment: SPR; PBP1B versions immobilised to the chip surface; CpoB versions injected from either 3.9 nM to 2 μM or from 78 nM to 40 μM; apparent KD by non-linear regression, at least three independent experiments
Common to all, as to details: both partners purified
In general terms: Surface plasmon resonance follows binding to a sensor surface in real time, without labels.

For one experiment, the target named is T1, PBP1B R109G (E. coli, UniProt P02919 46-844, R109G).
T1 construct: PBP1B, E. coli, residues 46-844, made by mutagenesis of pDML924; source: E. coli BL21(DE3), purified (membrane extract, HisTrap, thrombin, HiTrap SP ion exchange)
T1 sequence (looked up): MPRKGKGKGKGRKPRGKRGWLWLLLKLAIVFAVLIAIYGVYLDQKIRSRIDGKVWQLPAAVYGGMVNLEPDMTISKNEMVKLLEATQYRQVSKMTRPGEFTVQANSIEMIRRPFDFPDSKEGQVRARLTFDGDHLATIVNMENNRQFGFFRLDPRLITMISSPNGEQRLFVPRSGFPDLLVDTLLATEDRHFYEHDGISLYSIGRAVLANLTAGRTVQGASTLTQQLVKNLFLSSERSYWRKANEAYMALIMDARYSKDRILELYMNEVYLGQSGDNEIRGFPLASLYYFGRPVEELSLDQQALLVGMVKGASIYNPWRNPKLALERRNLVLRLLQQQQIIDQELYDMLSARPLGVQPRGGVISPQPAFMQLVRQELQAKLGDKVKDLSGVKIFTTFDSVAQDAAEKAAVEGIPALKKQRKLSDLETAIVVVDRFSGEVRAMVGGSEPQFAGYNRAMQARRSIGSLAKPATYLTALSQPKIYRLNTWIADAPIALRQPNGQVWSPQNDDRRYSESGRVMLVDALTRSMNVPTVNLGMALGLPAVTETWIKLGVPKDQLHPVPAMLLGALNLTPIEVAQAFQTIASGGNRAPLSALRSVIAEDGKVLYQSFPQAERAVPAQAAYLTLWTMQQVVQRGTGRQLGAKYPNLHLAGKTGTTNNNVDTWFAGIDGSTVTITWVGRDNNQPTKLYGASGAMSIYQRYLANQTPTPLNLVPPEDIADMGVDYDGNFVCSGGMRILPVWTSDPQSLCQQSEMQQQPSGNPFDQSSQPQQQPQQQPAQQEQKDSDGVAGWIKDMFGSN

The target of another experiment is T2, PBP1B I202F (E. coli, UniProt P02919 46-844, I202F).
T2 construct: PBP1B, E. coli, residues 46-844, made by mutagenesis of pDML924; Substitution first found in the suppressor screen of Markovski et al. 2016 (LpoB bypass); source: E. coli BL21(DE3), purified (membrane extract, HisTrap, thrombin, HiTrap SP ion exchange)
T2 sequence (looked up): T1 sequence (looked up) with G64R, I157F

Experiment [1] concerns the target T3, PBP1B (wild type, PBP1B^46-844) (E. coli, UniProt P02919 46-844).
T3 construct: PBP1B, E. coli, residues 46-844, encoded on pDML924; Immobilised on the SPR chip as in Egan et al. 2014 / Gray et al. 2015; also called WT PBP1B; WT; source: E. coli BL21(DE3), purified (membrane extract, HisTrap, thrombin, HiTrap SP ion exchange)
T3 sequence (looked up): T1 sequence (looked up) with G64R

B1: CpoB (full length) (natural protein, E. coli, UniProt P45955 27-263, looked up)
chain: QAPISSVGSGSVEDRVTQLERISNAHSQLLTQLQQQLSDNQSDIDSLRGQIQENQYQLNQVVERQKQILLQIDSLSSGGAAAQSTSGDQSGAAASTTPTADAGTANAGAPVKSGNANTDYNAAIALVQDKSRQDDAMVAFQNFIKNYPDSTYLPNANYWLGQLNYNKGKKDDAAYYFASVVKNYPKSPKAADAMFKVGVIMQDKGDTAKAKAVYQQVISKYPGTDGAKQAQKRLNAM
notes: CpoB, E. coli; The coiled-coil construct begins at residue 27, so the purified 'full length' protein may lack the signal peptide (surmise); source: E. coli BL21(DE3), purified (HisTrap, Superdex 200), as in Gray et al. 2015
With B1, the Kd in the experiment with PBP1B R109G is 70 nM; with PBP1B I202F, more than 2000 nM; in experiment [1], 94 nM.
